Reference: paper PMC3877365

What was measured:
[1] = target: BCRZFP-orfA fusion protein (walleye dermal sarcoma virus orfA protein fused to the BCR-ABL zinc finger protein) (walleye dermal sarcoma virus (WDSV)); assay: two-hybrid; ZFN-Y2H, LacZ reporter: relative β-galactosidase activity (ONPG assay) of colonies in liquid medium, wild-type Gal4 (pADH-Gal4) set to 100%
[2] = target: BCRZFP-orfA fusion protein (walleye dermal sarcoma virus orfA protein fused to the BCR-ABL zinc finger protein) (walleye dermal sarcoma virus (WDSV)); assay: two-hybrid; ZFN-Y2H: bait fused to BCR-ZFP, prey fused to FokI, co-transformed into AH109 carrying the reporter pADH-Gal4-BS; growth on SD plates lacking histidine and adenine, 30°C, at least three days; colonies counted against non-selective plates; spotting of dilutions

FokI-E2F5 fusion protein (human E2F5 fused to the FokI nuclease domain) (natural protein), sequence (Q15329 whole entry, the tested form may be a part): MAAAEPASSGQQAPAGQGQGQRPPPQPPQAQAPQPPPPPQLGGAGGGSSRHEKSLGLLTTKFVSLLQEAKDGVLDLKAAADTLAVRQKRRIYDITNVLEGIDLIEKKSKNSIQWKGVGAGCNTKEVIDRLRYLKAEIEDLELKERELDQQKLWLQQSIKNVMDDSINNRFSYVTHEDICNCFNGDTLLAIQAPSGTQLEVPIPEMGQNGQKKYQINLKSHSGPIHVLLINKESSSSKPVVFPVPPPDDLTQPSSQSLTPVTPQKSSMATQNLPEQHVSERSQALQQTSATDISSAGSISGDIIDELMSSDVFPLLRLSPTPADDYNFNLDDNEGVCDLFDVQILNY
BCRZFP-orfA fusion protein (walleye dermal sarcoma virus orfA protein fused to the BCR-ABL zinc finger protein) (walleye dermal sarcoma virus (WDSV)), sequence (Q88939 whole entry, the tested form may be a part): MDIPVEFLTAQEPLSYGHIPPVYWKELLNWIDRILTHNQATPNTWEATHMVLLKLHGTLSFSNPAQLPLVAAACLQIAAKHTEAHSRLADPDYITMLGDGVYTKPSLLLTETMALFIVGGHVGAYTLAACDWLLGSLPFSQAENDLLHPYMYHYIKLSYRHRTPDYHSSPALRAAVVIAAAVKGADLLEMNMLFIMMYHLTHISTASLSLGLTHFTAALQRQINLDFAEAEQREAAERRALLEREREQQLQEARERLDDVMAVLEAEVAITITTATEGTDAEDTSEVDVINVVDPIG

In the case of “FokI-E2F5 fusion protein (human E2F5 fused to the FokI nuclease domain) (natural protein)”, the relative β-galactosidase activity [1] was 84.3% and the percent of transformants surviving on selective medium [2] was 22.5%.
